Numbered stars: 1 amine (or outer) side, 2 acyl side, 3 side chain; on linkers, the order of the positions; unused ones are H or OH. Bridge positions count the residues as written; N and C are the ends. Side chains are listed from the residue outwards. Ends that are not written are not given here. * marks the point of attachment. C20 diacid = O=C(O)CCCCCCCCCCCCCCCCCCC(=O)*; γGlu = O=C(O)[C@H](CCC(=O)[*:2])N[*:1]
Key:
[1] = molecular target: T1, rat amylin receptor (rat calcitonin receptor + rat RAMP 3) (rat, UniProt P32214 25-516; Q9JJ73 23-147); assay: SPA competition with 125I-rat amylin, membranes of BHK cells with rat calcitonin receptor + rat RAMP3 (Assay VI)
T1 construct: whole, on cells; also called rAmylin-R; rat amylin 3(a) receptor
T1 sequence (looked up) 1: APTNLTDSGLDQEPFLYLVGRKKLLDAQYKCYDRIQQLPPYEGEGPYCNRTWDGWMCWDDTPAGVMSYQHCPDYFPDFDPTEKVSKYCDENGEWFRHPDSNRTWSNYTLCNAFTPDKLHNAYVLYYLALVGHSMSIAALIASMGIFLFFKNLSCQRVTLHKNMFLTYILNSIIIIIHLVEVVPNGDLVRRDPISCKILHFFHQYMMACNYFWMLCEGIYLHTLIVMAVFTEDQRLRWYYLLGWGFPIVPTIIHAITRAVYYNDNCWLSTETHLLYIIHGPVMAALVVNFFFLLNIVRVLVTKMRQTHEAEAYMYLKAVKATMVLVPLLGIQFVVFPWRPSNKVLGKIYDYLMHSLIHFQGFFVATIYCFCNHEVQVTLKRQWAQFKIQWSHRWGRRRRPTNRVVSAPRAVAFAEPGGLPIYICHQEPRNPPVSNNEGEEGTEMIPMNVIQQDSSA
T1 sequence (looked up) 2: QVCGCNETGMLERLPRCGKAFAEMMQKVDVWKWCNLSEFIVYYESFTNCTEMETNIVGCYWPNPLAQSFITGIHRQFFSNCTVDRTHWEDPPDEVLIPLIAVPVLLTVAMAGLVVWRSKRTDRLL

[2] = molecular target: T2, human calcitonin receptor (human, UniProt P30988 25-474); assay: ratio of binding IC50s: human calcitonin receptor over human amylin receptor (reference)
T2 construct: whole, on cells; also called hCTR; hCT
T2 sequence (looked up): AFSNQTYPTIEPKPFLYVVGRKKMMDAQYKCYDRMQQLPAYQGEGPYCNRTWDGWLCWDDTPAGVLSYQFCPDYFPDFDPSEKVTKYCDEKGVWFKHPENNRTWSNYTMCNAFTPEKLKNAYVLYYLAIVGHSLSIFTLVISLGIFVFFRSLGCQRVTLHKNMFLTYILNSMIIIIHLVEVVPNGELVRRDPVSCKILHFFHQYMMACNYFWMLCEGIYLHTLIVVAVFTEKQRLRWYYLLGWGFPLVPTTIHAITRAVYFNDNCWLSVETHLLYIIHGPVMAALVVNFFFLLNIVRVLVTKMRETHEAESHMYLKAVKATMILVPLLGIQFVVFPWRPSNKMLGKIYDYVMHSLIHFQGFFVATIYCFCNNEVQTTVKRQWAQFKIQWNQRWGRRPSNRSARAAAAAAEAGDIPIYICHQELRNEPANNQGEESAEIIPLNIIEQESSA
Summary of the method: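 Competition binding by SPA with cell membranes (35 ng/μL) and SPA beads in 50 mM Hepes pH 7.4 with 1 mM CaCl2, 5 mM MgCl2, 0.1% OA and 0.02% Tween20. Incubated 120 min at 25 °C with shaking, then counted.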

rat calcitonin receptor [3] = molecular target: T3, rat calcitonin receptor (rat, UniProt P32214 25-516); assay: SPA competition with 125I-calcitonin, membranes of BHK cells with rat calcitonin receptor (Assay VIII)
T3 construct: whole, on cells; also called rCTR; rat calcitonin (a) receptor
T3 sequence (looked up): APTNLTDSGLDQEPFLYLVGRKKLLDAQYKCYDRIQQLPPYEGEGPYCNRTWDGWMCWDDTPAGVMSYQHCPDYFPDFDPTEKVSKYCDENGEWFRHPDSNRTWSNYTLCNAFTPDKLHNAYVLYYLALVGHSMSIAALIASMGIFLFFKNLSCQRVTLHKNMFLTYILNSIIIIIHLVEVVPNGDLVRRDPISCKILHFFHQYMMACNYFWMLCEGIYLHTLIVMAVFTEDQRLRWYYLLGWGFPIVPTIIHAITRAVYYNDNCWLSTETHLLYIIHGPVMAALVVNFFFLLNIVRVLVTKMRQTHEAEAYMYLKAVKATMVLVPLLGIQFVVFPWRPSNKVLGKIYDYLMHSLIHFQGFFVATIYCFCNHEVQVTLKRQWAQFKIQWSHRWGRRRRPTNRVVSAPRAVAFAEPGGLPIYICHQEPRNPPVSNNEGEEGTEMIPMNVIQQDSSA

rat calcitonin receptor [4] = molecular target: T3, rat calcitonin receptor; assay: ratio of binding IC50s: rat calcitonin receptor over rat amylin receptor (reference)
[5] = molecular target: T4, rat amylin receptor (rat calcitonin receptor + rat RAMP 3) (rat, UniProt P32214 25-516; Q9JJ73 23-147); assay: SPA competition with 125I-rat amylin on membranes of BHK tk'ts 13 cells with rat calcitonin receptor + rat RAMP3 (Assay VI)
T4 construct: whole, on cells; Membranes of transiently transfected BHK tk'ts 13 cells; also called rAmylin-R; rat amylin 3(a) receptor
T4 sequence (looked up) 1: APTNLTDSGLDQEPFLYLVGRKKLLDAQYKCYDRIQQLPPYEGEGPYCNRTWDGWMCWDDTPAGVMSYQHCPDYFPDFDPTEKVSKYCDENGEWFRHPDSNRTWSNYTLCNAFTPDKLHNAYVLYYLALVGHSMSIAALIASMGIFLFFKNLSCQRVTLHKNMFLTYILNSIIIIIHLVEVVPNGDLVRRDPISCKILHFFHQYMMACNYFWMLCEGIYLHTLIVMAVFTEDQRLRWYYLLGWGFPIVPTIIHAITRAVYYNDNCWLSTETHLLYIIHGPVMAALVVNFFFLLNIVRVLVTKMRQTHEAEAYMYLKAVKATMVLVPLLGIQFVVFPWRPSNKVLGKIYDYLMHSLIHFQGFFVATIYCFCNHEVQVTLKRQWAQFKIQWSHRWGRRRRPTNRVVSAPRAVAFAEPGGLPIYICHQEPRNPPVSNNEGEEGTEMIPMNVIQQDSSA
T4 sequence (looked up) 2: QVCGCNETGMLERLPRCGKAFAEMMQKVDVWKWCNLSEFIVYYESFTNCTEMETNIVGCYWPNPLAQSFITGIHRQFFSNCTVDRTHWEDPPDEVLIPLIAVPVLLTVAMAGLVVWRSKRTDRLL

[6] = molecular target: T5, human calcitonin receptor (human, UniProt P30988 25-474); assay: ratio of IC50 on human calcitonin receptor to IC50 on human amylin receptor (reference m42), SPA competition
T5 construct: whole, on cells; Membranes of stably transfected cells; also called hCTR; hCT
T5 sequence (looked up): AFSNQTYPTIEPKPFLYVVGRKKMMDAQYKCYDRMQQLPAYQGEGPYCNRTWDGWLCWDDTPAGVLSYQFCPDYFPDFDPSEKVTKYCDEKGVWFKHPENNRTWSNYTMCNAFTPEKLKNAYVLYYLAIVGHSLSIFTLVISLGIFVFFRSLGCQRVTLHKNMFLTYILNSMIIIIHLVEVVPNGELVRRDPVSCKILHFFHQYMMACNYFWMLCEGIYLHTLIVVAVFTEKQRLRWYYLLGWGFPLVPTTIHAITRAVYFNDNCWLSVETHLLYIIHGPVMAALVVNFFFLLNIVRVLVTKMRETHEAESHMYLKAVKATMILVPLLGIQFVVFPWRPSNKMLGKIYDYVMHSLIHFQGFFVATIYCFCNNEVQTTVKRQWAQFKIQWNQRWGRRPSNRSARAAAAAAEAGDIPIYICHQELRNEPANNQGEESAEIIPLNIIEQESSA
Experimental: The resulting pellet was resuspended, homogenized and centrifuged (20.000 rpm, 15 min) in a buffer containing 20 mM Na-HEPES and 0.1 mM EDTA (pH 7.4, buffer 2). The resulting pellet was resuspended in buffer 2 and protein concentration was measured (BCA protein Assay, Pierce). The homogenate was kept cold during the whole procedure. The membranes were kept at −80° C. until use. The assay was performed in a 384 well Optiplate (PerkinElmer) in a total volume of 40 ul. Membranes were mixed with SPA beads. Final concentration of membranes 35 ng/μL final and SPA beads was 0.05 mg/well. Test-compounds were dissolved in DMSO and further diluted in assay buffer (50 mM Hepes, pH 7.4, 1 mM CaCl2, 5 mM MgCl₂, 0.1% OA and 0.02% Tween20). […] The final mixture was incubated with shaking at 400 rpm for 120 min at 25° C. prior to centrifugation (1500 rpm, 10 min). Samples were analyzed on TopCounter™ (Packard). The IC₅₀ was calculated using (one site binding competition analysis) GraphPad Prism5 as a measure of receptor affinity.
Membranes were prepared in the following way; the cells were rinsed with PBS and incubated with Versene for approximately 5 min before harvesting. The cells were flushed with PBS and the cell-suspension was centrifuged for 5 min at 1000 rpm. Cells were homogenized (Ultrathurrax) in a buffer containing 20 mM Na-HEPES and 10 mM EDTA (pH 7.4) and centrifuged at 20.000 rpm for 15 min. The resulting pellet was resuspended, homogenized and centrifuged (20.000 rpm, 15 min) in a buffer containing 20 mM Na-HEPES and 0.1 mM EDTA (pH 7.4, buffer 2). The resulting pellet was resuspended in buffer 2 and protein concentration was measured (BCA protein Assay, Pierce). The homogenate was kept cold during the whole procedure. The membranes were kept at −80° C. until use. Assay was performed in a 384 well Optiplate (PerkinElmer) in a total volume of 40 ul. Membranes were mixed with SPA beads.

rat calcitonin receptor [7] = molecular target: T6, rat calcitonin receptor (rat, UniProt P32214 25-516); assay: SPA competition with 125I-calcitonin on membranes of BHK tk'ts 13 cells with rat calcitonin receptor (Assay VIII)
T6 construct: whole, on cells; Membranes of transiently transfected BHK tk'ts 13 cells; also called rCTR; rat calcitonin (a) receptor
T6 sequence (looked up): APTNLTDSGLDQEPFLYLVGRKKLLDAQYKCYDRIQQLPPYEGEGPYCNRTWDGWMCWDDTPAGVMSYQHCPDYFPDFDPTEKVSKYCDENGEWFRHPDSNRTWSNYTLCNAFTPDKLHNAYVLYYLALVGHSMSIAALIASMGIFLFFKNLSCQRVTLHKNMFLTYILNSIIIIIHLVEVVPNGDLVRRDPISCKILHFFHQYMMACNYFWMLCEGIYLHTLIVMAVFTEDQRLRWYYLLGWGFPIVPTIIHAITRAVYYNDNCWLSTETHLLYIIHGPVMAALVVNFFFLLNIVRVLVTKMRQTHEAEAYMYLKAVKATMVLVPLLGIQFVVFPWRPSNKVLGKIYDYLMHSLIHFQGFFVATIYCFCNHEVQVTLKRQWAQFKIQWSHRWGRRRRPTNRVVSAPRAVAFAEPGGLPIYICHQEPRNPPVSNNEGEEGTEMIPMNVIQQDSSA

rat calcitonin receptor [8] = molecular target: T6, rat calcitonin receptor; assay: ratio of IC50 on rat calcitonin receptor to IC50 on rat amylin receptor (reference m40)

Binder | IC50 [1] | Ratio hCT/hAmylin binding [2] | IC50 (rat calcitonin receptor [3]) | Ratio rCT/rAmylin binding (rat calcitonin receptor [4]) | IC50 [5] | Ratio hCT/hAmylin binding [6] | IC50 (rat calcitonin receptor [7]) | Ratio rCT/rAmylin binding (rat calcitonin receptor [8])
K([γGlu-C20 diacid])CNTATCATQRLAHFLRHSSPNFGAIPSSTNVGSNTY-NH2 (disulfide 2-7; N-terminus assumed; SMILES CC[C@H](C)[C@H](NC(=O)[C@H](C)NC(=O)CNC(=O)[C@H](Cc1ccccc1)NC(=O)[C@H](CC(N)=O)NC(=O)[C@@H]1CCCN1C(=O)[C@H](CO)NC(=O)[C@H](CO)NC(=O)[C@H](Cc1c[nH]cn1)NC(=O)[C@H](CCCNC(=N)N)NC(=O)[C@H](CC(C)C)NC(=O)[C@H](Cc1ccccc1)NC(=O)[C@H](Cc1c[nH]cn1)NC(=O)[C@H](C)NC(=O)[C@H](CC(C)C)NC(=O)[C@H](CCCNC(=N)N)NC(=O)[C@H](CCC(N)=O)NC(=O)[C@@H](NC(=O)[C@H](C)NC(=O)[C@@H]1CSSC[C@H](NC(=O)[C@@H](N)CCCCNC(=O)CC[C@H](NC(=O)CCCCCCCCCCCCCCCCCCC(=O)O)C(=O)O)C(=O)N[C@@H](CC(N)=O)C(=O)N[C@@H]([C@@H](C)O)C(=O)N[C@@H](C)C(=O)N[C@@H]([C@@H](C)O)C(=O)N1)[C@@H](C)O)C(=O)N1CCC[C@H]1C(=O)N[C@@H](CO)C(=O)N[C@@H](CO)C(=O)N[C@H](C(=O)N[C@@H](CC(N)=O)C(=O)N[C@H](C(=O)NCC(=O)N[C@@H](CO)C(=O)N[C@@H](CC(N)=O)C(=O)N[C@H](C(=O)N[C@@H](Cc1ccc(O)cc1)C(N)=O)[C@@H](C)O)C(C)C)[C@@H](C)O, synthetic analogue of human amylin; also called compound 70) [N^ε1-[(4S)-4-carboxy-4-(19-carboxynonadecanoylamino)butanoyl]-[His14,Arg17,Pro21,Pro27]-h-amylin] | 0.355 nM | 60.8 | 34.2 nM | 96.5 | – | – | – | –
K([γGlu-γGlu-C20 diacid])CNTATCATQRLAEFLRHSSPNFGAIPSSTNVGPETY-NH2 (disulfide 2-7 (inferred), Synthetic acylated analogue of human amylin) | – | – | – | – | 0.182 nM | 17.6 | 16.1 nM | 88.5

Source: patent US20140087995A1 (published 2014)
